Results on five molecules are retold here after patent publication US20240018255A1 (QURE BIOTECHNOLOGY SHANGHAI, published 2024).

The target of assay [1] is T1, SIRPα V1 fusion Fc (mouse IgG2a) (human; mouse).
T1 construct: No linker mentioned between SIRPα and Fc
T1 chain: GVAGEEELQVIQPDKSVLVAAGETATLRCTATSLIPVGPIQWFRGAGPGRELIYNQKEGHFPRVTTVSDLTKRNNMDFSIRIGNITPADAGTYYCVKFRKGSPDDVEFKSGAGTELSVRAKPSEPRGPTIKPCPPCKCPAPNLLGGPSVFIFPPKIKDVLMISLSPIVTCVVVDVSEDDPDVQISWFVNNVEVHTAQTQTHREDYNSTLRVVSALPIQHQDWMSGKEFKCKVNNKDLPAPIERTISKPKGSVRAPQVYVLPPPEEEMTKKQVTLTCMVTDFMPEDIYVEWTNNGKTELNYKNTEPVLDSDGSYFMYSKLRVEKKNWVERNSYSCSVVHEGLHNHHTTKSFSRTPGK
Briefly: ELISA, plate coated with SIRPα V1-Fc (mouse IgG2a), anti-hFab secondary, OD450. The method, then: (§1) The plate was coated with SIRPα V1/V2/V3/V4/V5/V6/V7/V8/V9/V10 at 1 μg/ml, 60 μl/well overnight at 4° C., and washed twice with PBST; blocked with 5% non-fat milk (Sangon) of 200 μl/well, incubated at room temperature for 1 h, and washed twice with PBST. Antibody was incubated at 10 μg/ml, diluted with 5 times for 10 gradients, 60 μl/well, incubated at room temperature for 1 h, and washed with PBST 5 times. Secondary antibody incubation: anti-hFab 1:10000, 60 μl/well, incubated at room temperature for 1 h, washed with PBST 5 times. Developing: TMB was equilibrated at room temperature for 1 h in advance, 100 μl/well, to develop for 10 min, 2M H₂SO₄ of 50 ul/well was used for termination, and reading was performed at 450 nm on microplate reader.
On the technique in general: An ELISA detects its analyte on a solid surface through an enzyme-linked reagent.

The target in assay [2] is T2, SIRPα V9 fusion Fc (mouse IgG2a) (human; mouse).
T2 construct: No linker mentioned between SIRPα and Fc
T2 chain: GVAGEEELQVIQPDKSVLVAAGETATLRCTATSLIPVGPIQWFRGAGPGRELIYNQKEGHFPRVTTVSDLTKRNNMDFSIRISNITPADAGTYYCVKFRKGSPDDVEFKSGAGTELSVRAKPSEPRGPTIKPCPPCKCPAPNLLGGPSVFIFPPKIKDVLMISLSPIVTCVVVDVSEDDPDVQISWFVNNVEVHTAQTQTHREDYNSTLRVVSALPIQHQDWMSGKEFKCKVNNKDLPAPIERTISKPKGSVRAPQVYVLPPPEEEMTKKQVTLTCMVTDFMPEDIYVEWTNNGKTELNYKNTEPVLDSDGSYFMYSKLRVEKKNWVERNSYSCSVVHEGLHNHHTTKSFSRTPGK
Briefly: ELISA, plate coated with SIRPα V9-Fc (mouse IgG2a), anti-hFab secondary, OD450. The method, then: as §1

Assay [3] concerns the target SIRPα V7 fusion Fc (mouse IgG2a) (human; mouse). Briefly: ELISA, plate coated with SIRPα V7-Fc (mouse IgG2a), anti-hFab secondary, OD450. The method, then:
as §1

In assay [4] the target is T3, human SIRPα naturally expressed on human renal clear cell adenocarcinoma 786-O cells (human, UniProt P78324 31-504).
T3 construct: whole, on cells
Briefly: FACS on 786-O cells, PE-anti human FC secondary, MFI; unit from the axis Log[Abs,nM]. The procedure:
Blocking: the cells were resuspended with 2% FBS and were seeded into 96-well U bottom plate with 2E5/well, 200 μl/well, then subjected to ice bath for 1 h. Centrifugation was performed at 300 g for 3 min, and the supernatant was discarded. Antibody incubation: 10 μg/ml antibodies for incubation were diluted at 1:3, 100 μl/well, and subjected to ice bath for 1 h. Centrifugation was performed, and the supernatant was discarded. Pre-cooled PBS was added at 200 μl/well, centrifuged at 300 g for 5 min to discard supernatant, which was repeated twice. Secondary antibody: PE-anti human FC (1:200) 50 μl/well was subjected to ice bath for 0.5h. Centrifugation was performed and the supernatant was discarded. Pre-cooled PBS was added at 200 μl/well, centrifuged at 300 g for 5 min to discard supernatant, which was repeated 3 times. The mean fluorescence values were read on FACS.

Assay [5] addresses SIRPα V8 fusion Fc (mouse IgG2a) (human; mouse). Briefly: ELISA, plate coated with SIRPα V8-Fc (mouse IgG2a), anti-hFab secondary, OD450. The method, then:
as §1

For assay [6], the target named is T4, SIRPα V6 fusion Fc (mouse IgG2a) (human; mouse).
T4 construct: No linker mentioned between SIRPα and Fc
T4 chain: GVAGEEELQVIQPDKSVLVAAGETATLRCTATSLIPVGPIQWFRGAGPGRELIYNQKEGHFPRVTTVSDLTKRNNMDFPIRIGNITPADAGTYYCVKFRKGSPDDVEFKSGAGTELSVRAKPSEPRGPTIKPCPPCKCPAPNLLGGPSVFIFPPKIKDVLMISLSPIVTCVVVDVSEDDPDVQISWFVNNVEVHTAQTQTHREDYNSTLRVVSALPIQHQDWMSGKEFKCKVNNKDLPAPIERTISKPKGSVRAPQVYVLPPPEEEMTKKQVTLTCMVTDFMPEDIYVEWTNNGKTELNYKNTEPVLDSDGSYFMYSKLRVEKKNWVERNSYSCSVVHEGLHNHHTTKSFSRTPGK
Briefly: ELISA, plate coated with SIRPα V6-Fc (mouse IgG2a), anti-hFab secondary, OD450. The procedure: as §1

Assay [7] deals with SIRPα V10 fusion Fc (mouse IgG2a) (human; mouse). Briefly: ELISA, plate coated with SIRPα V10-Fc (mouse IgG2a), anti-hFab secondary, OD450. The procedure: as §1
For assay [8], the target named is T5, SIRPα V2 fusion Fc (mouse IgG2a) (human; mouse).
T5 construct: No linker mentioned between SIRPα and Fc
Briefly: ELISA, plate coated with SIRPα V2-Fc (mouse IgG2a), anti-hFab secondary, OD450. The method, then: as §1

Assay [9] addresses T6, SIRPα V4 fusion Fc (mouse IgG2a) (human; mouse).
T6 construct: No linker mentioned between SIRPα and Fc
T6 chain: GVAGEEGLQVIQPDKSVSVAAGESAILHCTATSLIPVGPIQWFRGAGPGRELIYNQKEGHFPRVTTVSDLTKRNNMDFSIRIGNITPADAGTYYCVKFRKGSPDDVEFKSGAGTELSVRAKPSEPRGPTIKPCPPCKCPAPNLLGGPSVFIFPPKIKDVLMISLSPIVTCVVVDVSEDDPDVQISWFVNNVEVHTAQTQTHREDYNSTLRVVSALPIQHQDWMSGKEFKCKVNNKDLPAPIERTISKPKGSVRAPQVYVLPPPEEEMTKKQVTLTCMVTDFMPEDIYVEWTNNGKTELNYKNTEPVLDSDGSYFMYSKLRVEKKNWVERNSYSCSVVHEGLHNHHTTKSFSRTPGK
Briefly: ELISA, plate coated with SIRPα V4-Fc (mouse IgG2a), anti-hFab secondary, OD450. The procedure:
as §1

T3 sequence (P78324 31-504): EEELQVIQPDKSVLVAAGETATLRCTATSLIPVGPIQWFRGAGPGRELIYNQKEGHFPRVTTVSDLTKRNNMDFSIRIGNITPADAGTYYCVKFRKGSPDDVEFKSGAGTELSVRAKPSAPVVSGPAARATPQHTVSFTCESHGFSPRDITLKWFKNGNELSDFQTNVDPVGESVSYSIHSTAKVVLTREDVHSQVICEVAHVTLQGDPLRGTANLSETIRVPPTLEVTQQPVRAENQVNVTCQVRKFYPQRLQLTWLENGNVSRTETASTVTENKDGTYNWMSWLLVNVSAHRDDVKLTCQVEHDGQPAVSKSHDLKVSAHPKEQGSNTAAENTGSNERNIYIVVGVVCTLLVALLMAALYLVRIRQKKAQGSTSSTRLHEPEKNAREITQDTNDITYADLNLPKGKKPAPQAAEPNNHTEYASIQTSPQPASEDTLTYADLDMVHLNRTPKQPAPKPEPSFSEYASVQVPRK

B1: QP026249 (control antibody, variable regions of KWAR23, human IgG4/kappa) (antibody)
light: QIVLTQSPAIMSASPGEKVTLTCSASSSVSSSYLYWYQQKPGSSPKLWIYSTSNLASGVPARFSGSGSGTSYSLTISSMEAEDAASYFCHQWSSYPRTFGAGTKLELKRTVAAPSVFIFPPSDEQLKSGTASVVCLLNNFYPREAKVQWKVDNALQSGNSQESVTEQDSKDSTYSLSSTLTLSKADYEKHKVYACEVTHQGLSSPVTKSFNRGEC
heavy: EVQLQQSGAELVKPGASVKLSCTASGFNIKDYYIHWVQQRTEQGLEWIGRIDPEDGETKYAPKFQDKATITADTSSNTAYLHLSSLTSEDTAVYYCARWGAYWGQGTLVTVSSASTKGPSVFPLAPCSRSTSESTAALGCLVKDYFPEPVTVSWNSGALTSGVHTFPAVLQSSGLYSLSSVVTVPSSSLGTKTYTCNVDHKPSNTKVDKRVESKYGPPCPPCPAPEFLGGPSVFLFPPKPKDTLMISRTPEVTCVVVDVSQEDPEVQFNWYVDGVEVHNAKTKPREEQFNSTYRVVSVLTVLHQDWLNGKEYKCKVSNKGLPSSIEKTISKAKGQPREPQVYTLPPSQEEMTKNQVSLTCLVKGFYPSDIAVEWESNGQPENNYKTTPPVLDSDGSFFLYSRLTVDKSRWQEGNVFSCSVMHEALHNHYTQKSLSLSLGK
notes: also called KWAR23 (QP026249)
Broadly, the EC50 (read off the curve) is the concentration needed to bring the measured effect to its halfway point. Read a high EC50 (read off the curve) as a need for much substance. As a reminder, the EC50 is the concentration that produces a half-maximal response. B1: the “EC50 (read off the curve)” value in assay [1] was ~0.2 nM; in assay [2] it was ~0.2 nM; in [3] it was ~0.1 nM; in assay [5] it was ~0.2 nM; in assay [6], ~0.1 nM. Also, the half-maximal effective concentration (EC50) in assay [4] came to 0.245 nM.

B2: QP256253 (humanized anti-SIRPα antibody, QP163164 humanized clone) (antibody, human IgG4, V domains shown)
VH: QVQLVQSGAEVKKPGASVKVSCKASGYTFTNYWINWVRQAPGQGLEWIAMIDPSDSETHYNQIFKDRATLTTDTSTSTAYMELRSLRSDDTAVYYCAMDYGSLYAMDYWGRGTLVTVSS
VL: DIVLTQSPDSLAVSLGERATINCRASKSVSSSGYNYIFWYQQKPGQPPKLLIYLASNLDSGVPDRFSGSGSGTDFTLTISSLQAEDVAVYYCQHSRELPTFGQGTKLEIK
B2 displayed an EC50 in assay [4] of 0.204 nM.

B3: QP256279 (affinity-matured humanized anti-SIRPα antibody) (antibody, IgG4, V domains shown)
VH: QVQLVQSGAEVKKPGASVKVSCKASGYTFTNYWINWVRQAPGQGLEWIAMIDPSDSETHYNQIFKDRATLTTDTSTSTAYMELRSLRSDDTAVYYCAMDYGSLYAMDYWGRGTLVTVSS
VL: DIVLTQSPDSLAVSLGERATINCRASQSVRSSGYNWIFWYQQKPGQPPKLLIYLASNRDSGVPDRFSGSGSGTDFTLTISSLQAEDVAVYYCQHSRELPTFGQGTKLEIK
notes: full-length IgG with hIgG4 constant region and kappa CL; also called CHO71 (QP256279 stably expressed in CHOS cells)
Consider B3, for which the “EC50 (read off the curve)” value was ~0.08 nM in assay [1]; ~0.07 nM in assay [7]; ~0.07 nM in assay [8]; ~0.07 nM in [3]; ~0.06 nM in [9].

B4: QP2561589 (affinity-matured humanized anti-SIRPα antibody) (antibody, IgG4, V domains shown)
VH: QVQLVQSGAEVKKPGASVKVSCKASGYTFTNYWINWVRQAPGQGLEWIAMIDPSDSETHYNQIFKDRATLTTDTSTSTAYMELRSLRSDDTAVYYCAMDYGSLYAMDYWGRGTLVTVSS
VL: DIVLTQSPDSLAVSLGERATINCRASKSVSSSGYNYIFWYQQKPGQPPKLLIYLASNLDSGVPDRFSGSGSGTDFTLTISSLQAEDVAVYYCQESWELPTFGQGTKLEIK
notes: hIgG4 constant region, kappa CL
Molecule B4 displayed an EC50 in assay [4] of 0.188 nM.

B5: QP2561586 (affinity-matured humanized anti-SIRPα antibody) (antibody, IgG4, V domains shown)
VH: QVQLVQSGAEVKKPGASVKVSCKASGYTFTNYWINWVRQAPGQGLEWIAMIDPSDSETHYNQIFKDRATLTTDTSTSTAYMELRSLRSDDTAVYYCAMDYGSLYAMDYWGRGTLVTVSS
VL: DIVLTQSPDSLAVSLGERATINCRASKSVSSSGYNYIFWYQQKPGQPPKLLIYLASNLDSGVPDRFSGSGSGTDFTLTISSLQAEDVAVYYCQESRELPTFGQGTKLEIK
notes: as for B4
As to B5, the EC50 in [4] came out at 0.217 nM.
